What was measured:
[1] = target: CCR3 (human) (UniProt P51677); test: cell-based or functional assay
[2] = target: T1, hCCR2b (human, UniProt P41597 1-374); test: cell-based or functional assay
T1 chain: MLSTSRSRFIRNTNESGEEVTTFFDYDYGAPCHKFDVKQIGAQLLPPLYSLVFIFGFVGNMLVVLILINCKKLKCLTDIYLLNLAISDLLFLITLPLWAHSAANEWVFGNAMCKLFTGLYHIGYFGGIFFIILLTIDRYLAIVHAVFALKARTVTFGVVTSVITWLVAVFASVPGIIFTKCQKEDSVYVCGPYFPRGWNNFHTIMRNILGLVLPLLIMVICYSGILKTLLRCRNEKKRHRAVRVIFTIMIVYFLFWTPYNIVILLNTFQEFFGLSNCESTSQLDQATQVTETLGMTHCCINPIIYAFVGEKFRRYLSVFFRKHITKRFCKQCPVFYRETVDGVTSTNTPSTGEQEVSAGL

[3] = target: CCR5 (human) (UniProt P51681); test: cell-based or functional assay
Sequence of CCR5 (human) (P51681 whole entry): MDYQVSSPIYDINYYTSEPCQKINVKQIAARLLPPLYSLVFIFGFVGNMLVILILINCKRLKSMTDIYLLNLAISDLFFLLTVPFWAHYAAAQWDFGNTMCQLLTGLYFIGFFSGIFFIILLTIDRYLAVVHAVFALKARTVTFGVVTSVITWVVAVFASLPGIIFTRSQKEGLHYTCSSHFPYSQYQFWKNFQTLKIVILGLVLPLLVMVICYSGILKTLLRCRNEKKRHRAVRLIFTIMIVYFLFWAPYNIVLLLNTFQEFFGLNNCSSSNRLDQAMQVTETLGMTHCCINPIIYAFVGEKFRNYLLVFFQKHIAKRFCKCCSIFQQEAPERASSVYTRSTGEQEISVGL

[4] = target: CCR9 (human) (UniProt P51686); test: cell-based or functional assay
Sequence of CCR9 (human) (P51686 whole entry): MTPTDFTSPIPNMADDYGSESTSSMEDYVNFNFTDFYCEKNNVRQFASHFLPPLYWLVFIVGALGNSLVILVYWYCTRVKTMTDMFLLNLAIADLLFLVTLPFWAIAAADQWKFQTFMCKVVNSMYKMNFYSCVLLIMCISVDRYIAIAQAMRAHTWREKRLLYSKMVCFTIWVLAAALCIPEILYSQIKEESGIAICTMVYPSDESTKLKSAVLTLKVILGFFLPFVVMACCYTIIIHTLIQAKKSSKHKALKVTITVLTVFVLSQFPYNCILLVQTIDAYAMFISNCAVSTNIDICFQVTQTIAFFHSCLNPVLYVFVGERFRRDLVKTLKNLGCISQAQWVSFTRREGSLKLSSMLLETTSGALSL

[5] = target: CCR1 (UniProt P32246); test: in vitro depletion: biotinylated RANTES coupled matrix, flow cytometry for CCR1, 3 or 5-expressing cells (receptor not singled out)
Sequence of CCR1 (P32246 whole entry): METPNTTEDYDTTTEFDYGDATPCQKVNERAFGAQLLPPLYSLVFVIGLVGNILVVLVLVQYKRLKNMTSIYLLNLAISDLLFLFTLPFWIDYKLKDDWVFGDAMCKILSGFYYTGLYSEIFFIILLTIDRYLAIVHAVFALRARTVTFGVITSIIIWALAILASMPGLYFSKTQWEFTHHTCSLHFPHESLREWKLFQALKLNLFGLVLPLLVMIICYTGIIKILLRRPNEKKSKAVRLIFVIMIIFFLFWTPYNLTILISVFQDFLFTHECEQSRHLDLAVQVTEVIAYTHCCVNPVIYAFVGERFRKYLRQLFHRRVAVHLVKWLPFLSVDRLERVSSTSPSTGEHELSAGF

[6] = target: CCR3 (human) (UniProt P51677); test: as above
[7] = target: CCR5 (human) (UniProt P51681); test: as above
[8] = target: CCR3 (human) (UniProt P51677); test: in vitro depletion: blood passed through magnetic column with eotaxin coupled MACS beads, flow cytometry for CCR3-expressing cells

Sequence of CCR3 (human) (P51677 whole entry): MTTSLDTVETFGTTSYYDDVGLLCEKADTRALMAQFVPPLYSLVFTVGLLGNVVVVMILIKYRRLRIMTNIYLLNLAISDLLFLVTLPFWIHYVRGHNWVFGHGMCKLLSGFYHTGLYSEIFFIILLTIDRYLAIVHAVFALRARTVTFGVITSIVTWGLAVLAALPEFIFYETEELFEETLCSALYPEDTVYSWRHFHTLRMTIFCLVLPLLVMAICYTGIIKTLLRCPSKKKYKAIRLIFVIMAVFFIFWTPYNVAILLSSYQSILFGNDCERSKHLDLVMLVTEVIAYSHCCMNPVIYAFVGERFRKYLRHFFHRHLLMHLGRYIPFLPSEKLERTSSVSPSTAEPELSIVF

Molecule: biotinEotaxin (CCL11) (ligand)
- EC50, Aequorin assay (antagonist) [1]: 0.212 µM

Molecule: biotinMCP-2 (CCL8) (ligand)
- EC50, Aequorin assay (partial agonist) [2]: 0.0509 µM

Molecule: biotinRANTES (CCL5) (ligand)
- EC50, Aequorin assay (agonist activity) [3]: 0.0005 µM

Molecule: biotinTECK(Met to Nleu substitution) (ligand)
- EC50, Aequorin assay (agonist activity) [4]: 0.0636 µM

Molecule: biotinylated RANTES coupled matrix (ligand)
- reduction of receptor-expressing cells by the column [5]: 20%
- reduction of receptor-expressing cells by the column [6]: 20%
- reduction of receptor-expressing cells by the column [7]: 20%

Molecule: biotinylated eotaxin coupled matrix (ligand)
- reduction of receptor-expressing cells by the column [8]: 25%

Molecule: recombinant native TECK (from UniProt O15444 24-150) (ligand)
- EC50, Aequorin assay (agonist activity) [4]: 0.0679 µM

Molecule: recombinant native eotaxin (ligand)
- EC50, Aequorin assay (agonist) [1]: 0.0107 µM

B1: recombinant native MCP-2 (ligand, UniProt P80075 24-99, looked up)
chain: QPDSVSIPITCCFNVINRKIPIQRLESYTRITNIQCPKEAVIFKTKRGKEVCADPKERWVRDSMKHLDQIFQNLKP
- EC50, Aequorin assay (partial agonist) [2]: 0.0235 µM
